Tests used:
Test in all cases: cell-based or functional assay
[1] = molecular target: Env of HIV-1 strain 1394C9G1(Rev-) (HIV-1)
[2] = molecular target: Env of HIV-1 strain AC10.0.29 (HIV-1)
[3] = molecular target: Env of HIV-1 strain C1080.c03 (HIV-1)
[4] = molecular target: Env of HIV-1 strain C4118.c09 (HIV-1)
[5] = molecular target: Env of HIV-1 strain CAP210.2.00.E8 (HIV-1)
[6] = molecular target: Env of HIV-1 strain CNE30 (HIV-1)
[7] = molecular target: Env of HIV-1 strain CNE53 (HIV-1)
[8] = molecular target: Env of HIV-1 strain HIV-16845-2.22 (HIV-1)
[9] = molecular target: Env of HIV-1 strain P1981_C5_3 (HIV-1)
[10] = molecular target: Env of HIV-1 strain RHPA4259.7 (HIV-1)
[11] = molecular target: Env of HIV-1 strain TRO.11 (HIV-1)
[12] = molecular target: Env of HIV-1 strain X2088_c9 (HIV-1)
[13] = molecular target: Env of HIV-1 strain ZM249M.PL1 (HIV-1)
[14] = molecular target: Env of HIV-1 strain ZM53M.PB12 (HIV-1)
[15] = molecular target: HIV-1 Env of strain 1394C9G1(Rev-) (HIV-1)
[16] = molecular target: HIV-1 Env of strain 3301.v1.c24 (HIV-1)
[17] = molecular target: HIV-1 Env of strain 6540.v4.c1 (HIV-1)
[18] = molecular target: HIV-1 Env of strain 6811.v7.c18 (HIV-1)
[19] = molecular target: HIV-1 Env of strain A07412M1.vrc12 (HIV-1)
[20] = molecular target: HIV-1 Env of strain C3347.c11 (HIV-1)
[21] = molecular target: HIV-1 Env of strain Ce703010054_2A2 (HIV-1)
[22] = molecular target: HIV-1 Env of strain Du422.1 (HIV-1)
[23] = molecular target: HIV-1 Env of strain HIV-001428-2.42 (HIV-1)
[24] = molecular target: HIV-1 Env of strain P1981_C5_3 (HIV-1)
[25] = molecular target: HIV-1 Env of strain SC422661.8 (HIV-1)
[26] = molecular target: HIV-1 Env of strain X1193_c1 (HIV-1)
[27] = molecular target: HIV-1 Env of strain ZM109F.PB4 (HIV-1)
[28] = molecular target: HIV-1 Env of strain ZM233M.PB6 (HIV-1)
[29] = molecular target: HIV-1 Env of strain ZM53M.PB12 (HIV-1)

Sequence of NIH45-46 (antibody) (VH): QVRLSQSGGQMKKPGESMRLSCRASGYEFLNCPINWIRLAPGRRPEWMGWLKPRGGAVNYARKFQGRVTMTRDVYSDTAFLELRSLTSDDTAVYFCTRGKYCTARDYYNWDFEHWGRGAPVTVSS
Sequence of NIH45-46 (antibody) (V domain): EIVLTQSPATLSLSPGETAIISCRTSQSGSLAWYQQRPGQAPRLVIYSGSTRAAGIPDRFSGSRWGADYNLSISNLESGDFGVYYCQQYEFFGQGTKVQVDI

Which IC80 [1] does the source give for NIH45-46 (antibody) here?
The IC80 was 0.38 µg/mL.

What about the IC80 [2] of the same substance?
Its IC80 is 1.93 µg/mL.

And the IC80 [3]?
Its IC80 is 11.6 µg/mL.

And the IC80 [4]?
Its IC80 is 0.91 µg/mL.

And the IC80 [5]?
The IC80 was greater than 50 µg/mL.

And the IC80 [6]?
The IC80 was 1.07 µg/mL.

And the IC80 [7]?
The IC80 was 0.039 µg/mL.

And the IC80 [8]?
Its IC80 is 22.6 µg/mL.

What about the IC80 [9] of the same substance?
The IC80 was 0.24 µg/mL.

And the IC80 [10]?
The IC80 was 0.047 µg/mL.

What about the IC80 [11] of the same substance?
The IC80 was 7.49 µg/mL.

What about the IC80 [12] of the same substance?
Its IC80 is greater than 50 µg/mL.

What about the IC80 [13] of the same substance?
Its IC80 is 0.053 µg/mL.

What about the IC80 [14] of the same substance?
The IC80 was 0.61 µg/mL.

What about the IC50, pseudovirus neutralization [15] of the same substance?
The IC50, pseudovirus neutralization was 0.09 µg/mL.

And the IC50, pseudovirus neutralization [16]?
The IC50, pseudovirus neutralization was 0.009 µg/mL.

What about the IC50, pseudovirus neutralization [17] of the same substance?
Its IC50, pseudovirus neutralization is greater than 50 µg/mL.

And the IC50, pseudovirus neutralization [18]?
The IC50, pseudovirus neutralization was 0.035 µg/mL.

And the IC50, pseudovirus neutralization [19]?
Its IC50, pseudovirus neutralization is 0.03 µg/mL.

And the IC50, pseudovirus neutralization [20]?
The IC50, pseudovirus neutralization was 0.029 µg/mL.

What about the IC50, pseudovirus neutralization [21] of the same substance?
The IC50, pseudovirus neutralization was 0.159 µg/mL.

And the IC50, pseudovirus neutralization [22]?
Its IC50, pseudovirus neutralization is greater than 50 µg/mL.

And the IC50, pseudovirus neutralization [23]?
The IC50, pseudovirus neutralization was 0.001 µg/mL.

What about the IC50, pseudovirus neutralization [24] of the same substance?
The IC50, pseudovirus neutralization was 0.08 µg/mL.

What about the IC50, pseudovirus neutralization [25] of the same substance?
The IC50, pseudovirus neutralization was 0.06 µg/mL.

What about the IC50, pseudovirus neutralization [26] of the same substance?
Its IC50, pseudovirus neutralization is 0.021 µg/mL.

What about the IC50, pseudovirus neutralization [27] of the same substance?
The IC50, pseudovirus neutralization was 0.095 µg/mL.

And the IC50, pseudovirus neutralization [28]?
The IC50, pseudovirus neutralization was 2.5 µg/mL.

What about the IC50, pseudovirus neutralization [29] of the same substance?
Its IC50, pseudovirus neutralization is 0.175 µg/mL.

Reference: patent US20130209454A1
